# T1: methionyl oligopeptide of SEQ ID NO: 1 (Met-Phe-Pro-Thr-Glu-Pro-Ser)
# T1 chain: MFPTEPS
# T2: leucyl oligopeptide of SEQ ID NO: 2
# T2 chain: LFPTEPS
# B1: Aeromonas proteolytica (Vibrio proteolytica) aminopeptidase (protein)
# chain: MPPITQQATVTAWLPQVDASQITGTISSLESFTNRFYTTTSGAQASDWIASEWQALSASLPNASVKQVSHSGYNQKSVVMTITGSEAPDEWIVIGGHLDSTIGSHTNEQSVAPGADDDASGIAAVTEVIRVLSENNFQPKRSIAFMAYAAEEVGLRGSQDLANQYKSEGKNVVSALQLDMTNYKGSAQDVVFITDYTDSNFTQYLTQLMDEYLPSLTYGFDTCGYACSDHASWHNAGYPAAMPFESKFNDYNPRIHTTQDTLANSDPTGSHAKKFTQLGLAYAIEMGSATGDTPTPGNQ
# Key:
# [1] = target: T1, methionyl oligopeptide of SEQ ID NO: 1 …
# [2] = target: T2, leucyl oligopeptide of SEQ ID NO: 2
protein,measurement,setting,value
B1,Kcat/Km,[1],3760 M⁻¹ s⁻¹
same,Km,[1],956 µM
same,kcat,[1],3.23 s⁻¹
same,Kcat/Km,[2],211000 M⁻¹ s⁻¹
same,Km,[2],336 µM
same,kcat,[2],70.3 s⁻¹

# From patent US6428997
